Reference: article PMC3069065
Where no end group is shown, it is not given here. The star is where a group is joined. Biotin = O=C1N[C@H]2[C@H](CS[C@H]2CCCCC(=O)*)N1

Molecular target: human vitamin D nuclear receptor ligand-binding domain, hexahistidine-tagged (6xHis-VDR-LBD) (human)
Assay: AlphaScreen or HTRF; 100 nM 6xHis-VDR-LBD on Ni2+-chelate acceptor beads, 20 nM biotinylated TIF2-3 peptide on streptavidin donor beads; increasing concentrations of 1α,25(OH)2D3 or 1α,25(OH)2-3-epi-D3 (1% DMSO); 50 mM MOPS pH 7.4, 50 mM NaF, 50 mM CHAPS, 100 µg/ml BSA

In the case of Biotin-QEPVSPKKKENALLRYLLDKDDTKD [human TIF2-3 biotinylated peptide (TIF2 coactivator peptide bearing the 3rd LXXLL motif)], the EC50 of the ligand 1α,25(OH)2-3-epi-D3 for induced recruitment of the peptide is reported as 2.5 nM and the EC50 of the ligand 1α,25(OH)2D3 for induced recruitment of the peptide is reported as 1.2 nM.
